Assays:
Assay in all cases: ELISA
Details in all cases: both partners purified
[1] = biological target: A/Aichi/2/68 (H3N2A) recombinant hemagglutinin (HA) (Influenza A virus A/Aichi/2/1968 …, UniProt T2HNI1)
[2] = biological target: A/Perth/16/2009 (H3N2P) recombinant hemagglutinin (HA) (Influenza A virus A/Perth/16/2009 (H3N2), UniProt C6KNH7, strain)
[3] = biological target: A/New Caledonia/20/1999 (NC H1N1) recombinant hemagglutinin (HA) (Influenza A virus A/New …, UniProt Q6WG00, strain)
[4] = biological target: A/California/07/2009 (pH1N1) recombinant hemagglutinin (HA) (Influenza A virus A/California/07/2009 …, UniProt C3W5X2, strain)

Measured: binding result

B1: F045-092 human IgG4 (antibody, V domains shown)
VH: EVQLVESGAEVKKPGSSVKVSCRASGTFYKYAINWVRQAPGQGLEWMGGIIPFFGTTNYAQKFQGRLTITADGSTNTAYMQLDSLRSEDTAVYYCAGPSITESHYCLDCAAKDYYYGLDVWGQGTTVTVSS
VL: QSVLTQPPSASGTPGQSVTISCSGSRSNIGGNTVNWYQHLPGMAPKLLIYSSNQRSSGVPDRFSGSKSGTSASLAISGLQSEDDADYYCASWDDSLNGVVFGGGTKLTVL
notes: also called F045-092 IgG4; source: HEK-293, transfected (pTT5), purified from cell culture supernatant (MabSelect); copies: 2 + 2
binds: [1] | [2]

B2: F045-092 human IgG1 with a mouse IgG1 hinge (antibody, V domains shown)
VH: EVQLVESGAEVKKPGSSVKVSCRASGTFYKYAINWVRQAPGQGLEWMGGIIPFFGTTNYAQKFQGRLTITADGSTNTAYMQLDSLRSEDTAVYYCAGPSITESHYCLDCAAKDYYYGLDVWGQGTTVTVSS
VL: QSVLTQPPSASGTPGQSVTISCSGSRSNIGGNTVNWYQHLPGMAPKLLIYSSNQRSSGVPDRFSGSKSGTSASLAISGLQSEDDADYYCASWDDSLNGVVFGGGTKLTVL
notes: also called human IgG1 with a mouse hinge; copies: 2 + 2
binds: [1] | [2]

B3: FI6 human IgG1 with a mouse IgG1 hinge (antibody, V domains shown)
VH: QVQLVESGGGVVQPGRSLRLSCAASGFTFSTYAMHWVRQAPGKGLEWVAVISYDANYKYYADSVKGRFTISRDNSKNTLYLQMNSLRAEDTAVYYCAKDSQLRSLLYFEWLSQGYFDYWGQGTLVTVSS
VL: not shown
notes: also called VR-analogous human IgG1 with a mouse IgG1 hinge (FI6); copies: 2 + 2
binds: all assays above

B4: FI6 human IgG4 (antibody, V domains shown)
VH: QVQLVESGGGVVQPGRSLRLSCAASGFTFSTYAMHWVRQAPGKGLEWVAVISYDANYKYYADSVKGRFTISRDNSKNTLYLQMNSLRAEDTAVYYCAKDSQLRSLLYFEWLSQGYFDYWGQGTLVTVSS
VL: not shown
notes: also called VR-analogous human IgG4 (FI6); source: HEK-293, transfected (pTT5), purified from cell culture supernatant (MabSelect); copies: 2 + 2
binds: all assays above

B5: FI6 mouse IgG1 (antibody, V domains shown)
VH: QVQLVESGGGVVQPGRSLRLSCAASGFTFSTYAMHWVRQAPGKGLEWVAVISYDANYKYYADSVKGRFTISRDNSKNTLYLQMNSLRAEDTAVYYCAKDSQLRSLLYFEWLSQGYFDYWGQGTLVTVSS
VL: not shown
notes: also called VR-analogous mouse IgG1 (FI6); source: HEK-293, transfected (pTT5), purified from cell culture supernatant (Protein G); copies: 2 + 2
binds: all assays above

B6: FI6 mouse IgG2a (antibody, V domains shown)
VH: QVQLVESGGGVVQPGRSLRLSCAASGFTFSTYAMHWVRQAPGKGLEWVAVISYDANYKYYADSVKGRFTISRDNSKNTLYLQMNSLRAEDTAVYYCAKDSQLRSLLYFEWLSQGYFDYWGQGTLVTVSS
VL: not shown
notes: also called VR-analogous mouse IgG2a (FI6); source: HEK-293, transfected (pTT5), purified from cell culture supernatant (Protein G); copies: 2 + 2
binds: all assays above

B7: CR6261 human IgG1 possessing a mouse IgG1 hinge (antibody, V domains shown)
VH: EVQLVESGAEVKKPGSSVKVSCKASGGPFRSYAISWVRQAPGQGPEWMGGIIPIFGTTKYAPKFQGRVTITADDFAGTVYMELSSLRSEDTAMYYCAKHMGYQVRETMDVWGKGTTVTVSS
VL: QSVLTQPPSVSAAPGQKVTISCSGSSSNIGNDYVSWYQQLPGTAPKLLIYDNNKRPSGIPDRFSGSKSGTSATLGITGLQTGDEANYYCATWDRRPTAYVVFGGGTKLTVL
notes: also called human IgG1 with a mouse IgG1 hinge; copies: 2 + 2
binds: [3] | [4]

B8: CR6261 human IgG4 (antibody, V domains shown)
VH: EVQLVESGAEVKKPGSSVKVSCKASGGPFRSYAISWVRQAPGQGPEWMGGIIPIFGTTKYAPKFQGRVTITADDFAGTVYMELSSLRSEDTAMYYCAKHMGYQVRETMDVWGKGTTVTVSS
VL: QSVLTQPPSVSAAPGQKVTISCSGSSSNIGNDYVSWYQQLPGTAPKLLIYDNNKRPSGIPDRFSGSKSGTSATLGITGLQTGDEANYYCATWDRRPTAYVVFGGGTKLTVL
notes: also called CR6261 IgG4; source: HEK-293, transfected (pTT5), purified from cell culture supernatant (MabSelect); copies: 2 + 2
binds: [3] | [4]

— PMC9865026 (Pathogens, 2022)
